2 molecules from publication doi:10.1101/2022.10.13.512040 (bioRxiv, 2022) can be followed below.

The target in data set [1] is Arabidopsis thaliana PIN1 (PIN-FORMED 1 auxin transporter) (Arabidopsis thaliana, UniProt Q9C6B8). Nature of the data set: cryo-EM structure.
The data set “cryo-EM structure” concerns the molecule itself. Nature of the data set: cryo-EM structure.

B1: sybody-21 (VHH)
VHH: QVQLVESGGGLVQAGGSLRLSCAASGFPVNISWMEWYRQVPGKEREWVAAIQSTGSYTWYADSVKGRFTISRDNAKNTVYLQMNSLKPEDTAVYYCRVKVGAYYRGQGTQVTVSA
Regarding B1, the binding result in data set [1] is reported as “binds”.

B2: Arabidopsis thaliana PIN1 (PIN-FORMED 1 auxin transporter) (natural protein)
chain: MITAADFYHVMTAMVPLYVAMILAYGSVKWWKIFTPDQCSGINRFVALFAVPLLSFHFIAANNPYAMNLRFLAADSLQKVIVLSLLFLWCKLSRNGSLDWTITLFSLSTLPNTLVMGIPLLKGMYGNFSGDLMVQIVVLQCIIWYTLMLFLFEYRGAKLLISEQFPDTAGSIVSIHVDSDIMSLDGRQPLETEAEIKEDGKLHVTVRRSNASRSDIYSRRSQGLSATPRPSNLTNAEIYSLQSSRNPTPRGSSFNHTDFYSMMASGGGRNSNFGPGEAVFGSKGPTPRPSNYEEDGGPAKPTAAGTAAGAGRFHYQSGGSGGGGGAHYPAPNPGMFSPNTGGGGGTAAKGNAPVVGGKRQDGNGRDLHMFVWSSSASPVSDVFGGGGGNHHADYSTATNDHQKDVKISVPQGNSNDNQYVEREEFSFGNKDDDSKVLATDGGNNISNKTTQAKVMPPTSVMTRLILIMVWRKLIRNPNSYSSLFGITWSLISFKWNIEMPALIAKSISILSDAGLGMAMFSLGLFMALNPRIIACGNRRAAFAAAMRFVVGPAVMLVASYAVGLRGVLLHVAIIQAALPQGIVPFVFAKEYNVHPDILSTAVIFGMLIALPITLLYYILLGL
B2: the binding result in the data set “cryo-EM structure” is “binds”.
